{"source": "paper PMC6069114", "about": "“Fungal Light-Oxygen-Voltage Domains for Optogenetic Control of Gene Expression and Flocculation in Yeast” (mBio, 2018)", "key": {"[1]": {"molecular_target": "T1, LOV domain of White Collar 1 (WC-1) bound to the Gal4 DNA binding domain (Neurospora crassa, UniProt Q01371 381-508)", "T1 construct": "White Collar 1 (WC-1), blue-light photoreceptor of Neurospora crassa; LOV domain only; also called WC-1 LOV-BD; WC-1 LOV plus GAL4-DBD; source: yeast two-hybrid fusion; S. cerevisiae BY4741 (wt or gal4Δ-gal80Δ), episomal pRS423, ADH1 promoter", "T1 sequence (looked up)": "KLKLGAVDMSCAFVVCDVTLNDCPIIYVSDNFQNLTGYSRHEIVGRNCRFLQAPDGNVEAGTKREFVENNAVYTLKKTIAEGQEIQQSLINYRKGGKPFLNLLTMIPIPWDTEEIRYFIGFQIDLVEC", "assay": "two-hybrid; FUN-LOV switch in S. cerevisiae; luciferase activity in protein extracts of cells grown 8 h in constant light (LL) against constant darkness (DD), normalised to total protein", "details": "partners not purified"}, "[2]": {"molecular_target": "T1, LOV domain of White Collar 1 (WC-1) …", "assay": "two-hybrid; FUN-LOV switch in S. cerevisiae; destabilized firefly luciferase reporter under P_(GAL1) or P_(5XGAL1); luminescence of living cells normalised by OD600; constant white light (100 µmol m^-2 s^-1) or constant blue light (20 µmol m^-2 s^-1), 30°C; fold induction against the average background in constant darkness", "details": "partners not purified"}}, "data": [{"binder": "full-length VIVID (VVD) tethered to the Gal4 transactivation domain (natural protein, Neurospora crassa, UniProt Q9C3Y6 1-186, looked up, VIVID (VVD), blue-light photoreceptor of Neurospora crassa; full-length VVD and not just VVD-36; also called VVD-AD; VVD plus GAL4-AD; source: yeast two-hybrid fusion; S. cerevisiae BY4741 (wt or gal4Δ-gal80Δ), episomal pRS425, ADH1 promoter) MSHTVNSSTMNPWEVEAYQQYHYDPRTAPTANPLFFHTLYAPGGYDIMGYLIQIMNRPNPQVELGPVDTSCALILCDLKQKDTPIVYASEAFLYMTGYSNAEVLGRNCRFLQSPDGMVKPKSTRKYVDSNTINTMRKAIDRNAEVQVEVVNFKKNGQRFVNFLTMIPVRDETGEYRYSMGFQCETE", "values": [{"measurement": "fold induction of luciferase activity in protein extracts, LL over DD", "setting": "[1]", "value": "~2500", "unit": "fold"}, {"measurement": "fold induction of the luciferase reporter, blue light over darkness (P_(5XGAL1))", "setting": "[2]", "value": 1320, "unit": "fold"}, {"measurement": "fold induction of the luciferase reporter, white light over darkness (P_(5XGAL1))", "setting": "[2]", "value": 1220, "unit": "fold"}]}]}
